# ± gives the standard error. This sample holds only a part of the variants without activity.
# B1: glmS ribozyme (parent)
# chain: AUAAAAGCGCCAGAACUACAGAAAUGUAGUUGACGAGGAGGAGGUUUAUCGAAUUUUCGGCGGAUGCCUCCAAA
# Variants of: B1
# Assay: self-cleavage kobs at 2500 uM GlcN6P; higher = faster cleavage; RNA array
# Conditions: with glucosamine-6-phosphate
# Outline: (§1)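 kcat and KM were obtained from weighted Michaelis–Menten fits across concentrations of kobs values. Those came from one- or two-exponential decay fits to per-tile medians normalised to baseline and to non-cleaving reference variants. The variants were barcoded ribozymes transcribed in situ by E. coli RNA polymerase on sequenced MiSeq chips and tracked through a hybridised Cy3 probe at 37 °C, with 40 μM to 10 mM glucosamine-6-phosphate in HEPES/KCl/Mg(OAc)2 buffer flowed in.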
row,Variant,self-cleavage kobs at 2500 uM GlcN6P
1,G9C A33C G38C A39C U65G,< 1e-05 s⁻¹
2,C11U G29A C70A,0.000404 ± 0.00014 s⁻¹
3,C8U C11G C58A,< 1e-05 s⁻¹
4,C10G C34G G51U,< 1e-05 s⁻¹
5,C10G A12U C50G,0.000103 ± 2.4e-05 s⁻¹
6,A12G G29C G37A U46A,< 1e-05 s⁻¹
7,G9C A12C A42C,< 1e-05 s⁻¹
8,C11U A12G C16U G40A C68U,< 1e-05 s⁻¹
9,C10U G29C A36G G41U U54A,< 1e-05 s⁻¹
10,C10U A33G G35U U47A G59C,< 1e-05 s⁻¹
11,A12U G41U U46C,9.28e-05 ± 3.6e-05 s⁻¹
12,G9C C11A G35A G37U A39C G59U,< 1e-05 s⁻¹
13,C10U G29U G38A,0.00158 ± 0.0007 s⁻¹
14,C10U G60C G63U,< 1e-05 s⁻¹
15,G9C G38C C67U,< 1e-05 s⁻¹
16,A12C A36G G40U G43U U54G,< 1e-05 s⁻¹
17,G9U C10U C34U U46A,< 1e-05 s⁻¹
18,C11A A33C A53C A64C,< 1e-05 s⁻¹
19,C8A U55A C71U,< 1e-05 s⁻¹
20,C11A G40C G62A C68U,< 1e-05 s⁻¹
21,C10G A12C G44A C68U,< 1e-05 s⁻¹
22,C8U A36G C50A G51A C68U C70A,0.000112 ± 4.4e-05 s⁻¹
23,A12G G32U G40U,0.000317 ± 0.00011 s⁻¹
24,G7U U57C C68G,< 1e-05 s⁻¹
25,C8U G38C C61A,< 1e-05 s⁻¹
26,G7U G32C U54A,< 1e-05 s⁻¹
27,C8U C16U G60C C71G,< 1e-05 s⁻¹

row,Variant,self-cleavage kobs at 2500 uM GlcN6P
1,G9U G29A G63A,< 1e-05 s⁻¹
2,C11A U47G C61G,< 1e-05 s⁻¹
3,C8U A15C G63C,< 1e-05 s⁻¹
4,C10U A12U A53U,4.13e-05 ± 1.7e-05 s⁻¹
5,A12U U49G G59C,< 1e-05 s⁻¹
6,A12C A15C A48G,< 1e-05 s⁻¹
7,C11G C67A,< 1e-05 s⁻¹
8,C10A C34A U65C G66C C71G,< 1e-05 s⁻¹
9,C8G C10A G44U,< 1e-05 s⁻¹
10,C11U G60U C68A,< 1e-05 s⁻¹
11,C8U A15U G44C,< 1e-05 s⁻¹
12,C10U G60C G62U,< 1e-05 s⁻¹
13,A12G U49G A64G,9.53e-05 ± 2.8e-05 s⁻¹
14,C8A U45G U57A,< 1e-05 s⁻¹
15,C10A G41A G43C,< 1e-05 s⁻¹
16,G7U A39G U56G C70A,< 1e-05 s⁻¹
17,C8A G35C A53U G60A,< 1e-05 s⁻¹
18,C8A G40U A53G,< 1e-05 s⁻¹
19,C8A G29U G32U,< 1e-05 s⁻¹
20,G7U G35U U45A A53C,< 1e-05 s⁻¹
21,C10U C16U G32U,6.59e-05 ± 1.7e-05 s⁻¹
22,A12C A42U C67U,7.04e-05 ± 1.6e-05 s⁻¹
23,C8G A14C C71G,< 1e-05 s⁻¹
24,A12G U46G C71U,9.1e-05 ± 2.1e-05 s⁻¹
25,A12U A33U U49A C68A,< 1e-05 s⁻¹
26,G9U U45G G62C G66C,< 1e-05 s⁻¹
27,C8A C11U C34G G38A,< 1e-05 s⁻¹

row,Variant,self-cleavage kobs at 2500 uM GlcN6P
1,C11G G38U A42U G43A,< 1e-05 s⁻¹
2,A12U G40A U57A A64C,< 1e-05 s⁻¹
3,C11G A12G G29A U31G G43U U49A G51U U54C C61U,< 1e-05 s⁻¹
4,G7U G41A A64U,< 1e-05 s⁻¹
5,G9C C11U G29C G59C,< 1e-05 s⁻¹
6,G7U G62C G63C U69C,< 1e-05 s⁻¹
7,C10A G63A C71U,< 1e-05 s⁻¹
8,C11G U30G U49A,< 1e-05 s⁻¹
9,A12G G44U G59C G60C,< 1e-05 s⁻¹
10,G7U C8U G35C G62A,< 1e-05 s⁻¹
11,G9A G62U U69G,< 1e-05 s⁻¹
12,C11A A42U G43A,< 1e-05 s⁻¹
13,G7U U56G C58U,< 1e-05 s⁻¹
14,C8G U30C A36C U69C,< 1e-05 s⁻¹
15,G9U G32C G41U U47G A52G U65G U69A,< 1e-05 s⁻¹
16,C10A C16G U31C G37C C58A G59U,< 1e-05 s⁻¹
17,C10G G38U,< 1e-05 s⁻¹
18,G9U G29A A42G G60C,< 1e-05 s⁻¹
19,A12G U30G U46G,< 1e-05 s⁻¹
20,C8G C10G A39C,< 1e-05 s⁻¹
21,G9U C16A C34A C50G,7.29e-05 ± 2.6e-05 s⁻¹
22,G9U G66U U69G,< 1e-05 s⁻¹
23,C11U G13C G62A C71U,< 1e-05 s⁻¹
24,A12G A14U A64G,0.000293 ± 7.2e-05 s⁻¹
25,A12C C16U U57A,4.57e-05 ± 1.5e-05 s⁻¹
26,A12G U55A U69G,0.000115 ± 3e-05 s⁻¹

# Variants of: B1
# Assay: self-cleavage kobs at 10000 uM GlcN6P; higher = faster cleavage; RNA array
# Conditions: with glucosamine-6-phosphate
# Outline: as §1
row,Variant,self-cleavage kobs at 10000 uM GlcN6P
1,C11U G29A C70A,5.6e-05 ± 1.8e-05 s⁻¹
2,C11A A33C A53C A64C,< 1e-05 s⁻¹
3,A12G U49G A64G,7.02e-05 ± 2e-05 s⁻¹
4,A12U A33U U49A C68A,< 1e-05 s⁻¹
5,G7U U56G C58U,< 1e-05 s⁻¹
6,C8G U30C A36C U69C,< 1e-05 s⁻¹
7,A12C C16U U57A,0.000157 ± 3.4e-05 s⁻¹

# Reference: the supplement of paper PMC7125110
